In paper doi:10.1101/2021.05.04.442675:

Molecular target: FLAG-tagged MIWI piRISC made in BmN4 cells (mouse) (UniProt Q9JMB7)
Sequence (Q9JMB7 whole entry): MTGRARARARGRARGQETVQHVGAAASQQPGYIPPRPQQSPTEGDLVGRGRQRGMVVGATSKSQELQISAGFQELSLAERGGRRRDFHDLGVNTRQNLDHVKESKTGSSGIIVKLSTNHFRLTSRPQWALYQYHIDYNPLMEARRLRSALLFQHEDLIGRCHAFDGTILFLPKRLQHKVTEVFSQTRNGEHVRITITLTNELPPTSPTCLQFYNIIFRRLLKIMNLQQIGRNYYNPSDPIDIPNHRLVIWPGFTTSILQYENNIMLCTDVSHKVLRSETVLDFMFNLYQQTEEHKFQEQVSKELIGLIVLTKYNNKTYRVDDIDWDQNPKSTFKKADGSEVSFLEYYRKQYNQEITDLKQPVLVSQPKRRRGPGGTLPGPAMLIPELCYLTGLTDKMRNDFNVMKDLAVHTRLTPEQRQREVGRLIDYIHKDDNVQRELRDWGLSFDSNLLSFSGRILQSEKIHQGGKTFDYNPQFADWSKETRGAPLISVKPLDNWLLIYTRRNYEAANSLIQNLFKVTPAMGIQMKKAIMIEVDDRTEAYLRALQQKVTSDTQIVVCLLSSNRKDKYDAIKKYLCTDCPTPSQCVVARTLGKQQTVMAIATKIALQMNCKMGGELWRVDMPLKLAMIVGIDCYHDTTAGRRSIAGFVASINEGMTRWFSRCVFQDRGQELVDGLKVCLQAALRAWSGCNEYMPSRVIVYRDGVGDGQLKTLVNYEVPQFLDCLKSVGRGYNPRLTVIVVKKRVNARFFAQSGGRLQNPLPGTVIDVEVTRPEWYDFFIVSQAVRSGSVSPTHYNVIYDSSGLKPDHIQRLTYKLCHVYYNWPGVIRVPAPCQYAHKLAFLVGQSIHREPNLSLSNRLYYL

increase in the amount of target cleaved by MIWI piRISC (S.D. = 0.1; p = 0.0027): 2.6 fold
Substance: BmGtsf1-like, silk moth (Bombyx mori), V5SBP-tagged recombinant (natural protein)
